One molecule from patent publication US20200087662, “INHIBITION OF POLY(A) BINDING PROTEIN AND THE TREATMENT OF PAIN” (Board of Regents, The University of Texas System, published 2020) can be followed below.

The data set has as its target PABPC1 (residues 1-383) (Homo sapiens, UniProt P11940 P11940:1-383). Description: FP; 50 mM HEPES, 5 mM EDTA, 250 mM KCl, 10 mM DTT, 0.5 mg/mL BSA, 0.05% Tween-20, yeast total RNA competitor. The following applies: label: Cy3 or 3' biotin. The procedure:
Equilibrium dissociation constants were determined by florescence anisotropy measurements of either unmodified adenosine 12 nucleotide RNA or the Poly(A) SPOT-ON to recombinant human PABPC1 (residues 1-383). Binding reactions were conducted in 50 μL of buffer containing 50 mM HEPES, 5 mM EDTA, 250 mM KCl, 10 mM DTT, 0.5 mg/mL BSA, 0.05% Tween-20, 0.1 mg/mL yeast competitor total RNA (Ambion), and 0.5 nM Cy3-labeled RNA. Measurements were recorded on a Tecan Spark multimode plate reader in triplicate. Data were fit using Kalidagraph as described⁶³

PABPC1 (residues 1-383), sequence (P11940 1-383, one chain of several): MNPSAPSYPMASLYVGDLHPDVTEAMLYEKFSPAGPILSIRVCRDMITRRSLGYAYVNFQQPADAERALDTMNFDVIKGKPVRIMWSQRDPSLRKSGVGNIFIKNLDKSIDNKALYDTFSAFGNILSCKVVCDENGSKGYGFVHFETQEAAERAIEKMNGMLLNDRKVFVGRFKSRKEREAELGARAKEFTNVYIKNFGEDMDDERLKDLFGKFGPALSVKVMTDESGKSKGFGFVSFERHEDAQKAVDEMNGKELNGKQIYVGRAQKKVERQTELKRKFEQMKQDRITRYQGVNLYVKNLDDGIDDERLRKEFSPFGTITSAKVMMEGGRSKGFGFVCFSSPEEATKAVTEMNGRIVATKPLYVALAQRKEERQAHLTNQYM

B1: Poly(A) SPOT-ON (ssRNA)
RNA: AAAAAAAAAAAA
modifications: 2'-OMe at all riboses; PS at the 5'-most and 3'-most linkages
The term Kd denotes the constant that tells how readily two partners part at equilibrium. With B1, the Kd was determined as 301 nM. This counts as sub-micromolar.
